Assay results reported in US20150329594A1 (University of California, published 2015).
Values joined by “and” are separate entries in the source; they are usually repeats but may differ in a detail not shown here. Identical values can stand only once. Like-named read-outs stand apart in the source and are kept apart here. Bridge positions count the residues as written; N and C are the ends. Square brackets hold non-standard residues; d marks the D form. Trp(1-Me) = Cn1cc(C[C@H](N)C(=O)O)c2ccccc21

Legend:
Assay in all cases: cell-based or functional assay
[1] = target: T1, human complement protein C3 (human, UniProt P01024 23-1663)
[2] = target: T1, human complement protein C3; remark: listed apart in the source
[3] = target: T1, human complement protein C3; remark: listed apart in the source
[4] = target: T1, human complement protein C3; remark: listed apart in the source

T1 sequence (P01024 23-1663 limits assumed): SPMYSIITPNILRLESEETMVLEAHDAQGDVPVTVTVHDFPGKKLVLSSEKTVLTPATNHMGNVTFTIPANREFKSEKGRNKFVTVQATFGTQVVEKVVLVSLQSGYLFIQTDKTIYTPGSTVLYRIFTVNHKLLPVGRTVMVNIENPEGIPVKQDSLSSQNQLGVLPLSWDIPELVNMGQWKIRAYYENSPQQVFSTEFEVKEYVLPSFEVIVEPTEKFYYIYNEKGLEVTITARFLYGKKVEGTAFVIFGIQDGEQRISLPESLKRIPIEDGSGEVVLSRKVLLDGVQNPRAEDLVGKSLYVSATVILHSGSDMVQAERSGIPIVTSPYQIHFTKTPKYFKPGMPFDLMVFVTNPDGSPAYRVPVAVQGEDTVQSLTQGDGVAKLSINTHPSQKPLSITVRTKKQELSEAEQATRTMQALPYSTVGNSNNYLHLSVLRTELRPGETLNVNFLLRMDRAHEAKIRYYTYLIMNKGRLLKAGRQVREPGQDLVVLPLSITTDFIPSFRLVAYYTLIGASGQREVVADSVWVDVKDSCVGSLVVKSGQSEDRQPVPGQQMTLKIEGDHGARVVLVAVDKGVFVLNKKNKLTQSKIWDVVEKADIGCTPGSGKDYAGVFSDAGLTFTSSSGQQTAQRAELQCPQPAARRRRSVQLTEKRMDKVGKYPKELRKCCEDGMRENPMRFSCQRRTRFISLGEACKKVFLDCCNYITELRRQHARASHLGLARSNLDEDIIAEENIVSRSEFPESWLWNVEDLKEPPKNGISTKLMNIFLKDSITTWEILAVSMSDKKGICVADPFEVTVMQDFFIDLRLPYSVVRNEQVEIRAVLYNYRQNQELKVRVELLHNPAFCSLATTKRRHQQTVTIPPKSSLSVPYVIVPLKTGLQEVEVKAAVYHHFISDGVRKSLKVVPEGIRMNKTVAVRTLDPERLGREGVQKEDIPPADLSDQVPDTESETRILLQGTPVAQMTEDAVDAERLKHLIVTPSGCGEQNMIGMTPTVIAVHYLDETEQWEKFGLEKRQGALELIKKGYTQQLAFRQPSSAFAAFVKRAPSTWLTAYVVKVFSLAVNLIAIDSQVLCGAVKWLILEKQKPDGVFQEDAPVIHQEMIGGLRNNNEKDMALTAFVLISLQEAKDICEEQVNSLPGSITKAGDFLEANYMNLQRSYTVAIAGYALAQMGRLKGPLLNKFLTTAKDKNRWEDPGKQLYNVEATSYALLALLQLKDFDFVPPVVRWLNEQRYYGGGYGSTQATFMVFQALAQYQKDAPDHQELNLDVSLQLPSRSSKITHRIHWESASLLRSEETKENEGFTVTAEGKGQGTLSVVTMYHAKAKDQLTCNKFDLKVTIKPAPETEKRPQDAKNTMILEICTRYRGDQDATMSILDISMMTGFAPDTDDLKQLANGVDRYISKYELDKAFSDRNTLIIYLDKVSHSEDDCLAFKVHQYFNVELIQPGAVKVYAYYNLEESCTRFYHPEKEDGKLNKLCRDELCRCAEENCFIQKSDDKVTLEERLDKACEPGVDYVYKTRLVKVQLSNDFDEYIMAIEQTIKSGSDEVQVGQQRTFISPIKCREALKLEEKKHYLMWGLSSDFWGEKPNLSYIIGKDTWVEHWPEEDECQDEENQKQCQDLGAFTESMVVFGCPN

Binder | IC50 (assay not named in Table 7; preliminary C3b ELISA by paragraph 235) [1] [nM] | C3b ELISA IC50 [2] [nM] | C5b-9 ELISA IC50 [2] [nM] | Hemolytic assay IC50 [2] [nM] | RPE cell assay medium C5b-9 ELISA, % of positive control (peptide at 1 µM) [3] | RPE cell-based assay, confocal imaging of deposit-associated C5b-9, % of positive control (peptide at 1 µM) [3] | C3b ELISA IC50 [4] | C5b-9 ELISA IC50 [4] | Lysis IC50 [4]
Ac-RCV[Trp(1-Me)]QDWGAHRCT-NH2 (disulfide 2-12; SMILES CC(=O)N[C@@H](CCCNC(=N)N)C(=O)N[C@H]1CSSC[C@@H](C(=O)N[C@H](C(N)=O)[C@@H](C)O)NC(=O)[C@H](CCCNC(=N)N)NC(=O)[C@H](Cc2c[nH]cn2)NC(=O)[C@H](C)NC(=O)CNC(=O)[C@H](Cc2c[nH]c3ccccc23)NC(=O)[C@H](CC(=O)O)NC(=O)[C@H](CCC(N)=O)NC(=O)[C@H](Cc2cn(C)c3ccccc23)NC(=O)[C@H](C(C)C)NC1=O) [Peptide III, Ac-RCVme…-NH2] | 300000 | 1420 | 1070 | 2250 | 50 % of positive control | 20 % of positive control | 1400 nM and 500 nM | 1100 nM and 600 nM | –
RSICVXQDWGAHRCT (N-terminal acetyl; C-terminal amide; disulfide bridge Cys2-Cys12; meW (Trp methylated at the indole amide position) at position 4 (filing's numbering from -1; 6th residue of the chain)) [Peptide VI, Ac-RS-ICVme…-NH2] | 620000 | 1740 | 1130 | 2230 | 44.6 % of positive control | 14.8 % of positive control | 1700 nM and 600 nM | 1100 nM and 600 nM | –
Ac-RCVWQDWGAHRCT-NH2 (disulfide 2-12; SMILES CC(=O)N[C@@H](CCCNC(=N)N)C(=O)N[C@H]1CSSC[C@@H](C(=O)N[C@H](C(N)=O)[C@@H](C)O)NC(=O)[C@H](CCCNC(=N)N)NC(=O)[C@H](Cc2c[nH]cn2)NC(=O)[C@H](C)NC(=O)CNC(=O)[C@H](Cc2c[nH]c3ccccc23)NC(=O)[C@H](CC(=O)O)NC(=O)[C@H](CCC(N)=O)NC(=O)[C@H](Cc2c[nH]c3ccccc23)NC(=O)[C@H](C(C)C)NC1=O) [Peptide I, Ac-RCVWQDWGAHRCT-NH2] | 250000 | 2580 | 2020 | 3330 | 61.4 % of positive control | 55.3 % of positive control | 2600 nM and 1100 nM | 2000 nM and 1000 nM | 3300 nM and 1200 nM
